Biological target: unprocessed hMPV PreF trimer (wild-type hMPV F ectodomain trimer, strain B2, C-terminal GCN4 trimerization … (human metapneumovirus, strain B2))
Test: ELISA

B1: M4B06 IgG (antibody, V domains shown)
VH: EVQLLESGGGFVQPGGSLRLSCVVTGFTFSNYAMCWVRQAPGKGPEWVSGIGGSVGTTYYADSVKGRFTISRDNSKNTLYLQMSGLRAEDTARYYCAKVPSFFVFEDGFDMWGQGTVVTVSS
VL: QSVLTQPPSASGNPGQRVTISCYGSGSNIGNNYVHWFRQLPGTAPRLLIYNTDILVPGVPDRFSGSESGTSASLAISGLQSGDEADYFCAAWDDTLNGYVFGPGTTVTVL
EC50: 4.4 ng/mL

Source: PMC9091222 (2022)
